Measurements: US20020137677A1

Tests used:
Test in all cases: cell-based or functional assay
[1] = biological target: human zalpha11 Ligand (human) (UniProt Q9HBE4)
[2] = biological target: mouse zalpha11 receptor, on cells (mouse)
[3] = biological target: human zalpha11 receptor, full-length, on cells (human) (UniProt Q9HBE5)
Chain of UniProt Q9HBE5 (Q9HBE5 20-538 limits assumed): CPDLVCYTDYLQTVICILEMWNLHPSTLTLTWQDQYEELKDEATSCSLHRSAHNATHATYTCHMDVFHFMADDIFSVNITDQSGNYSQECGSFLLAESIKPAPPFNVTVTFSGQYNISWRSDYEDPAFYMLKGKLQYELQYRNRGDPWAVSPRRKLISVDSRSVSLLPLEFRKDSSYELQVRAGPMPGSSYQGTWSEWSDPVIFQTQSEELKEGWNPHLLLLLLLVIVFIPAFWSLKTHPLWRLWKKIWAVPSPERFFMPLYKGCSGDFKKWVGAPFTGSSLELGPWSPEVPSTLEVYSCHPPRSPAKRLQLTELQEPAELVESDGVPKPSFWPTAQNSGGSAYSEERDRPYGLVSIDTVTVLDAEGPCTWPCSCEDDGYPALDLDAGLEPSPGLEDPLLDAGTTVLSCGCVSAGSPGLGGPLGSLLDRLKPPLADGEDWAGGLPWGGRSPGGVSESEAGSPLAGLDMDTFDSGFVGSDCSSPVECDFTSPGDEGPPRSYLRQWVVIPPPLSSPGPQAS

Chain of UniProt Q9HBE4 (Q9HBE4 32-162 limits assumed, form in doubt): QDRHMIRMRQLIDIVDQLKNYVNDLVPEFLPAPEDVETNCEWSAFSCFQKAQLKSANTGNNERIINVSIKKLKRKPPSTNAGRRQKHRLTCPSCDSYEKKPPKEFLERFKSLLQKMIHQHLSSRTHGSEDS

Row | Substance | inhibition of BaF3/zalpha11 proliferation (Alamar Blue), concentration completely inhibiting 3 ng/ml human zalpha11 Ligand [1] | potency in inhibiting human zalpha11 Ligand relative to the homodimeric soluble zalpha11 receptor (zalpha11-Fc4) [1] | STAT luciferase reporter response of untransfected BaF3/KZ134 control cells [2] | STAT luciferase reporter response of BaF3/KZ134/Zalpha11 cells (fold over media-only control) [3] | proliferation of BaF3/Zalpha11 cells (Alamar Blue) (fold over background) [3]
1 | soluble human zalpha11 receptor/human IL-2Rγ receptor heterodimer (hzalpha11/IgGγ1 + hIL-2Rγ/human κ light chain) (Fc fusion) | 0.312 µg/mL | 30 to 100 fold | – | – | –
2 | mouse zalpha11 Ligand | – | – | 5 fold | 40 | 5
